“And” between values parts separate entries of the source, which are not always exact repeats. Equal entries are not always repeated.
Legend:
[1] = target: the molecule itself; assay: crystal structure; N-RNA ring (~4 mg/mL), RNA-bound; 100 mM Tris/Bicine pH 8.5, 90 mM NPS, 37.5% MPD/PEG 1000/PEG 3350 (MORPHEUS); 4.2 Å; ten-fold non-crystallographic symmetry
[2] = target: the molecule itself; assay: electron cryomicroscopy with 2D classification; purified N-RNA preparation plunge-frozen on holey carbon grids; 2D-class averages with RELION

B1: HMPV nucleoprotein N, assembled RNA-bound state (N-RNA rings) (natural protein)
chain: MSLQGIHLSDLSYKHAILKESQYTIKRDVGTTTAVTPSSLQQEITLLCGEILYAKHADYKYAAEIGIQYISTALGSERVQQILRNSGSEVQVVLTRTYSLGKIKNNKGEDLQMLDIHGVEKSWVEEIDKEARKTMATLLKESSGNIPQNQRPSAPDTPIILLCVGALIFTKLASTIEVGLETTVRRANRVLSDALKRYPRMDIPKIARSFYDLFEQKVYHRSLFIEYGKALGSSSTGSKAESLFVNIFMQAYGAGQTMLRWGVIARSSNNIMLGHVSVQAELKQVTEVYDLVREMGPESGLLHLRQSPKAGLLSLANCPNFASVVLGNASGLGIIGMYRGRVPNTELFSAAESYAKSLKESNKINFSSLGLTDEEKEAAEHFLNVSDDSQNDYE
notes: Nucleoprotein N of human metapneumovirus, strain NL1-00 (A1), full-length N gene, 394 residues; each N subunit contacts seven RNA nucleotides; also called subnucleocapsid ring; decameric N-RNA ring; source: Rosetta2 E. coli, purified (Ni-NTA, Superose 6), with RNA from the expression host
- stoichiometry N [1]: 10
- stoichiometry N [2]: 9 and 11

Reference: publication PMC4798948, “Nucleocapsid assembly in pneumoviruses is regulated by conformational switching of the N protein” (eLife, 2016)
